Experimental findings from patent publication US20090068109A1 (Janssen / Centocor, published 2009) are described below.

The target in assay [1] is human MCP-1 (human) (UniProt P13500). As to the kind of experiment: cell-based or functional assay.
Assay [2] has the same target. Nature of the assay: inhibition of 125I-MCP-1 binding to THP-1 cells (CCR2).
The target is the same in assay [3]. Nature of the assay: BioVeris (IGEN) solution equilibrium titration.
For assay [4], the target named is T1, human MCP-4 (human, UniProt Q99616 24-98).
T1 construct: also called CCL13
T1 sequence (Q99616 24-98 limits assumed): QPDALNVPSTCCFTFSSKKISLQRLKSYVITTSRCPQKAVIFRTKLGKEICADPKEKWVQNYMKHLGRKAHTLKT
As to the kind of experiment: Biacore, captured IgG. Here is the method: (§1) Specificity of Optimized Antibodies in Biacore Antibody Capture Mode (CNTO). Specificity evaluation was performed with selected IgGs. In Biacore 100 nM human MCP-1, human MCP-2, 3, 4 and human Eotaxin 1, 2 and 3 were added to captured optimized antibodies.
For orientation: SPR reads the build-up and loss of mass on a sensor chip optically.

The target in assay [5] is T2, human MCP-2 (human, UniProt P80075 24-99).
T2 construct: also called CCL8
T2 sequence (looked up): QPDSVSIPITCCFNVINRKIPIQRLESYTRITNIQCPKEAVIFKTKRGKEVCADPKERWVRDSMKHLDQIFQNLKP
As to the kind of experiment: Biacore, captured IgG. Here is the method:
as §1

Assay [6] deals with T3, human MCP-3 (human, UniProt P80098 24-99).
T3 construct: also called CCL7
T3 sequence (P80098 24-99 limits assumed): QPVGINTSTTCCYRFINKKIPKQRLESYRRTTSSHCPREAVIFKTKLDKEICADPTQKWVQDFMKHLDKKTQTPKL
As to the kind of experiment: Biacore, captured IgG. As to the method:
as §1

In assay [7] the target is T4, human Eotaxin-3 (human, UniProt Q9Y258 24-94).
T4 sequence (looked up): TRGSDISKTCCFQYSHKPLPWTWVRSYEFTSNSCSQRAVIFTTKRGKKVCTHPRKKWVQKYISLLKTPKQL
Nature of the assay: Biacore, captured IgG. As to the method:
as §1

For assay [8], the target named is T5, human Eotaxin-2 (human, UniProt O00175 27-104, limits assumed).
T5 sequence (looked up): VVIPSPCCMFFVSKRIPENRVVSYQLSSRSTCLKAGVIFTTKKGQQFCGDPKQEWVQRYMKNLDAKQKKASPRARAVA
As to the kind of experiment: Biacore, captured IgG. As to the method:
as §1

Assay [9] has as its target T6, human Eotaxin (human, UniProt P51671 24-97).
T6 construct: also called Eotaxin-1; Eotaxin 1
As to the kind of experiment: BioVeris solution equilibrium titration. Here is the method: Solution Equilibrium Titration (SET) Method for KD Determination and Cross-Reactivity Studies Using BioVeris. Affinity determination in solution was basically performed as described in the literature (Friguet et al., 1985). In order to improve the sensitivity and accuracy of the SET method, it was transferred from classical ELISA to ECL based BioVeris technology (Haenel et al., 2005, accepted for publication in Analytical Biochemistry). 1 mg/ml goat-anti-human (Fab)₂ or goat-anti-mouse IgG, Fc fragment specific antibodies (Jackson Immuno Research) were labelled with BV-tag™ NHS-Ester (Bioveris Europe, Witney, Oxfordshire, UK) according to manufacturer's instructions. The experiments were carried out in polypropylene microtiter plates and PBS pH 7.4 with 0.5% BSA and 0.02% Tween 20 as assay buffer. Unlabeled antigen was diluted in 4ⁿ series: For human and cyno MCP-1 a concentration range of 10 pM to 40 nM and for cross-reactivity controls (Eotaxin and MCP-2) a concentration range of 40 pM to 160 nM was chosen. Wells without antigen were used to determine Smax values. After addition of 100 pM Fab or IgG (final concentration in 75 μL final volume), the mixture was incubated for 2 hours at RT. Subsequently a mixture of 25 μl Dynabeads (0.4 mg/ml M-280 Streptavidin, DYNAL, Hamburg), coated with 0.25 μg/ml biotinylated MCP-1 (K69) and BV-tag labeled detection antibody in a final dilution of 1:4000 for anti-human Fab or 1:2000 for anti-mouse IgG were added per well. After incubation for 30 min on an Eppendorf shaker (700 rpm) at RT, electrochemiluminescence signals were detected using a M-384 SERIES® Workstation (Bioveris Europe) Data were evaluated with Origin 5.0 (Microcal) software applying customized fitting models (for Fab: Haenel et al., 2005, accepted for publication in Analytical Biochemistry; for IgG: according to Piehler et al., 1997).
Specificity Testing Using BioVeris. Beside the affinity also the specificity, especially the cross-reactivity to Eotaxin and MCP-2, was analyzed in solution equilibrium titration (SET) using BioVeris. No cross-reactivity to human MCP-2 was detectable for any of the selected 16 Fabs and 15 IgGs tested (one of the 16 selected IgGs was not available). As human MCP-1, human MCP-2 binds mainly to the CCR2 receptor, while human Eotaxin predominantly binds to the CCR3 receptor.

Assay [10] deals with T7, human MCP-1 (human, UniProt P13500 24-99). Nature of the assay: cell-based or functional assay.
T7 sequence (P13500 24-99): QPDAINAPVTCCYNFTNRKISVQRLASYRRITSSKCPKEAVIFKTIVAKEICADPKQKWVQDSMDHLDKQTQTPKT
Assay [11] has as its target T7, human MCP-1. Nature of the assay: inhibition of 125I-MCP-1 binding to THP-1 cells (CCR2).
Assay [12] concerns the target T2, human MCP-2. Nature of the assay: Biacore, captured Fab. Here is the method: For the specificity analysis of Fabs, surface plasmone resonance was used (Biacore 3000, Uppsala, Sweden) using the capture assay was used. Fabs were captured and the various proteins (MCP-2, -3, -4 and Eotaxin-1, -2 and -3) were used as analytes. CM5 chips (Biacore, Sweden) were coated with 6500-8000 RU anti-F(ab)₂ (Dianova, Affipure F(ab)₂ fragment goat anti-human IgG, F(ab)₂ fragment specific; 10 mM acetate buffer, pH 4.5) on all 4 flow cells, using standard EDC-NHS amine coupling chemistry. The flow cells 2-4 were captured with specific anti-MCP-1 Fabs (20 μl of 500 nM Fab at a flow rate of […], resulted capture density 300-400RU). After capturing of Fabs, the chemokines were injected (20 μl, flow rate 20 μl/min, PBS pH 7.4) at a concentration of 100 nM. Chemokines were stored in small aliquots and only freshly thawed material with maximum 1 freeze thaw cycle was used for the measurements. To avoid a combination of off rates aroused by the off rate of MCP-1, Fab specific interaction and the anti-Fab/Fab interaction, buffer was injected, to determine the dissociation of anti-Fab/Fab interaction. The achieved buffer sensorgram was subtracted from the specific one. The response units were normalized to the amount of capture antibody onto the surface.

Assay [13] concerns the target T7, human MCP-1. Nature of the assay: Biacore, Fab.
Assay [14] deals with T8, cynomolgus monkey MCP-1 (cynomolgus monkey, UniProt P61274 24-99).
T8 construct: also called cyno MCP-1; cyno CCL-2
T8 sequence (P61274 24-99 limits assumed): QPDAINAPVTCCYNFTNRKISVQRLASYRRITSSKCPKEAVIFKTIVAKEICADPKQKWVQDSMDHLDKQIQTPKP
As to the kind of experiment: Biacore, Fab.

Sequence of human MCP-1 (human) (P13500 24-99): as the sequence (P13500 24-99) above
T6 sequence (P51671 24-97 limits assumed): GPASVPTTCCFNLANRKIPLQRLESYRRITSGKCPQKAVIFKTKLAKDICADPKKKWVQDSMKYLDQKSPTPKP

B1: C775 Fab (Fab, from another filing, V domains shown)
VH: QVQLKQSGAELVRPGASVKLSCKASGYTFTDYYINWVKQRPGQGLEWIARIYPGTGNTYYNENFKGKATLTAEKSSSTAYMQLSSLTSEDSAVYFCARSGSTVVGNYYGMDYWGQGTSVTVSS
VL: SIVMTQTPKFLLVSAGDRVSITCKASQSVSNDVAWYQQKPGQSPKLLIYYASNRYTGVPDRFTGSGYGTDFTFTISTVQAEDLAVYFCQQDYSSPWTFGGGTKLEIKR
B1 showed an Inhibition of Ca2+ Mobilization IC50 in [1] of 71.5 nM. The concentration for half-maximal inhibition (IC50) (as a rule, the point on the concentration scale where inhibition reaches its midpoint) in [2] worked out at 35.6 nM. In assay [3], the equilibrium dissociation constant (Kd) (in general, the free concentration of one partner at which half of the binding sites on the other are occupied at equilibrium, for simple one-to-one binding) amounted to 65 nM.

B2: C775 IgG (antibody, from another filing, V domains shown)
VH: QVQLKQSGAELVRPGASVKLSCKASGYTFTDYYINWVKQRPGQGLEWIARIYPGTGNTYYNENFKGKATLTAEKSSSTAYMQLSSLTSEDSAVYFCARSGSTVVGNYYGMDYWGQGTSVTVSS
VL: SIVMTQTPKFLLVSAGDRVSITCKASQSVSNDVAWYQQKPGQSPKLLIYYASNRYTGVPDRFTGSGYGTDFTFTISTVQAEDLAVYFCQQDYSSPWTFGGGTKLEIKR
For the molecule B2, the Inhibition of Ca2+ Mobilization IC50 in [1] was found to be 62.3 nM. This molecule also yielded a half-maximal inhibitory concentration (IC50) in assay [2] of 25.6 nM.

B3: MOR03747 IgG1 (antibody, V domains shown)
VH: QVQLVESGGGLVQPGGSLRLSCAASGFTFRSYGMSWVRQAPGKGLEWVSNIRSDGSYTYYADSVKGRFTISRDNSKNTLYLQMNSLRAEDTAVYYCARFEFTPWTYFDFWGQGTLVTVSS
VL: DIELTQPPSVSVAPGQTARISCSGDNLGKKYVYWYQQKPGQAPVLVIYDDDNRPSGIPERFSGSNSGNTATLTISGTQAEDEADYYCQSYDRFSSTGFGGGTKLTVL
notes: Human IgG1 lambda
Turning to B3, the binding result is reported as “no binding (tested: 100 nM)” in assay [4]; “no binding (tested: 100 nM)” in [5]; “no binding (tested: 100 nM)” in assay [6]; “no binding (tested: 100 nM)” in assay [7]; “no binding (tested: 100 nM)” in [8]; “no binding (tested: 40 pM to 160 nM)” in [9].

B4: MOR03747 Fab (Fab, V domains shown)
VH: QVQLVESGGGLVQPGGSLRLSCAASGFTFRSYGMSWVRQAPGKGLEWVSNIRSDGSYTYYADSVKGRFTISRDNSKNTLYLQMNSLRAEDTAVYYCARFEFTPWTYFDFWGQGTLVTVSS
VL: DIELTQPPSVSVAPGQTARISCSGDNLGKKYVYWYQQKPGQAPVLVIYDDDNRPSGIPERFSGSNSGNTATLTISGTQAEDEADYYCQSYDRFSSTGFGGGTKLTVL
notes: HuCAL Fab with C-terminal FLAG and 6xHis tags
As to B4, the binding result in assay [9] was “no binding (tested: 40 pM to 160 nM)”.

B5: MOR03744 IgG1 (antibody, V domains shown)
VH: QVQLVESGGGLVQPGGSLRLSCAASGFTFRSYGMSWVRQAPGKGLEWVSNIRSDGSYTYYADSVKGRFTISRDNSKNTLYLQMNSLRAEDTAVYYCARFEFTPWTYFDFWGQGTLVTVSS
VL: DIELTQPPSVSVAPGQTARISCSGDNLGKKYVYWYQQKPGQAPVLVIYDDDNRPSGIPERFSGSNSGNTATLTISGTQAEDEADYYCQTYDRFSSTAFGGGTKLTVL
notes: Human IgG1 lambda
Turning to B5, the binding result in assay [4] was “no binding (tested: 100 nM)”; in assay [5], “no binding (tested: 100 nM)”; in [6], “no binding (tested: 100 nM)”; in assay [7], “no binding (tested: 100 nM)”; in assay [8], “no binding (tested: 100 nM)”; in assay [9], “no binding (tested: 40 pM to 160 nM)”.

B6: MOR03548 Fab (Fab, V domains shown)
VH: QVQLVESGGGLVQPGGSLRLSCAASGFTFRSYGMSWVRQAPGKGLEWVSNIRSDGSYTYYADSVKGRFTISRDNSKNTLYLQMNSLRAEDTAVYYCARFEFTPWTYFDFWGQGTLVTVSS
VL: DIELTQPPSVSVAPGQTARISCSGDNLGKKYVYWYQQKPGQAPVLVIYDDDNRPSGIPERFSGSNSGNTATLTISGTQAEDEADYYCQSYTAQSSASFGGGTKLTVL
notes: Parental HuCAL GOLD Fab with C-terminal FLAG and 6xHis tags
As to B6, the “Ca2+ mobilization IC50” value in assay [10] turned out to be 124 nM. The same molecule showed an IC50 in [11] of 11 nM. Further, in [12], the binding result is “no binding (tested: 100 nM)”. In addition, the equilibrium dissociation constant (Kd) in [13] stood at 42 nM; in assay [14] it was 54 nM.

B7: MOR03744 Fab (Fab, V domains shown)
VH: QVQLVESGGGLVQPGGSLRLSCAASGFTFRSYGMSWVRQAPGKGLEWVSNIRSDGSYTYYADSVKGRFTISRDNSKNTLYLQMNSLRAEDTAVYYCARFEFTPWTYFDFWGQGTLVTVSS
VL: DIELTQPPSVSVAPGQTARISCSGDNLGKKYVYWYQQKPGQAPVLVIYDDDNRPSGIPERFSGSNSGNTATLTISGTQAEDEADYYCQTYDRFSSTAFGGGTKLTVL
notes: as for B4
Take B7: the binding result in assay [9] is given as “no binding (tested: 40 pM to 160 nM)”.
